This passage reports Kd results from publication PMC8440498.

The test concerns the target Aβ1-40 (human). The test is described as follows: ELISA. (In general: In an ELISA, binding on a coated surface is turned into a signal by an enzyme label.)

For “clusterin (human plasma apolipoprotein J) (from UniProt P10909 23-227; P10909 228-449) (natural protein)”, the Kd stood at 2 nM.

Broadly, the Kd is a measure of binding affinity in units of concentration.
